# Patent publication US20210277137A1
# Target: human CD40 on cells (human) (UniProt P25942)
# Experiment: cell-based or functional assay
# human CD40 on cells (human), sequence (P25942 21-277 limits assumed): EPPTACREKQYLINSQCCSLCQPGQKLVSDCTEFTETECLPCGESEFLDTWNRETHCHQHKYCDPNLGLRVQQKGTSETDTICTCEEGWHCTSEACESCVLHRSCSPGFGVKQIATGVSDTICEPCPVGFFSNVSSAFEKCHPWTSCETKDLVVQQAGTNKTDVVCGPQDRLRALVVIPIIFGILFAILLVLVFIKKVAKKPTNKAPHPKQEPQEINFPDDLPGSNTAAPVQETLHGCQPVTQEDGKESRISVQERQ
substance,measurement,value
literature CD40 antibody G28-5,"Monocyte activation (THP1-Xblue, OD655)",0.12 OD655
same,"moDC activation (IL-12p70, pg/mL)",139 pg/mL
